Values of other authors, collected in article PMC5490247.
Read-outs that look alike come from different tables or passages of the source.

Experiments:
IL-6R (Homo sapiens) [1] = biological target: IL-6R (Homo sapiens) (UniProt P08887)
IL-6R (Homo sapiens) [2] = biological target: IL-6R (Homo sapiens) (UniProt P08887); remark: listed apart in the source

UniProt P08887, sequence (P08887 20-355): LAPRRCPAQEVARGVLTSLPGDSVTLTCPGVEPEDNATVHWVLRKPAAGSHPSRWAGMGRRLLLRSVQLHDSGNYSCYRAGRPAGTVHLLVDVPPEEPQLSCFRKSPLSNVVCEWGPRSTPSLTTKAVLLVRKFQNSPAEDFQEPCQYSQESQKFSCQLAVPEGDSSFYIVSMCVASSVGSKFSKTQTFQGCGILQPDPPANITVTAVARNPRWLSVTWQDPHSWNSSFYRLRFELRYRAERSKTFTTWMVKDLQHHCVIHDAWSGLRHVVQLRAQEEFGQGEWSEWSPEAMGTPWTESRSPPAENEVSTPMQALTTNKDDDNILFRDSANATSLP

Row | Kd (IL-6R (Homo sapiens) [1]) | Kd (IL-6R (Homo sapiens) [2]) | Substance
1 | 1 nM | – | IL-6 (from UniProt P05231)
2 | – | 2.54 nM | Tocilizumab
